Data taken from patent US20220204580A1 (AstraZeneca / MedImmune, published 2022).
Numbered stars: 1 amine (or outer) side, 2 acyl side, 3 side chain; on linkers, the order of the positions; unused ones are H or OH. Bridge positions count the residues as written; N and C are the ends. Square brackets hold non-standard residues; d marks the D form. Side chains are listed from the residue outwards. Ends that are not written are not given here. * marks the point of attachment. C18 diacid = O=C(O)CCCCCCCCCCCCCCCCC(=O)*; γGlu = O=C(O)[C@H](CCC(=O)[*:2])N[*:1]; Aib = CC(C)(N)C(=O)O

T1: rat calcitonin receptor (rat, UniProt P32214 25-516)
T1 sequence (looked up): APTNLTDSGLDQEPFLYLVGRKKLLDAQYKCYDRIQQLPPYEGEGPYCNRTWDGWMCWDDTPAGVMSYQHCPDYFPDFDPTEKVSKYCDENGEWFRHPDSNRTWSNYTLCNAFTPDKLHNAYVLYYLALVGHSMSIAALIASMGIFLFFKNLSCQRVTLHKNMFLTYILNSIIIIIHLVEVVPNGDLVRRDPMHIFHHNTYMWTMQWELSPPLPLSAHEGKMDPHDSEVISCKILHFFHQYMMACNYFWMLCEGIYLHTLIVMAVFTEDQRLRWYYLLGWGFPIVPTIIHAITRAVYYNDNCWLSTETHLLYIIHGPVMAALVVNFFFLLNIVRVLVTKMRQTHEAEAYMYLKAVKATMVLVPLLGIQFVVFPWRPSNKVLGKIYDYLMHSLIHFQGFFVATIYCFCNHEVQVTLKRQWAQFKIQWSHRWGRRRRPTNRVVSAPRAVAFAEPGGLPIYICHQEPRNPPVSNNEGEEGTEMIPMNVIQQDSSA

T2: rat amylin receptor (calcitonin receptor co-expressed with receptor activity modifying protein, RAMP3) (rat, UniProt P32214 25-516; Q9JJ73 23-147)
T2 sequence (looked up) 1: T1 sequence (looked up)
T2 sequence (looked up) 2: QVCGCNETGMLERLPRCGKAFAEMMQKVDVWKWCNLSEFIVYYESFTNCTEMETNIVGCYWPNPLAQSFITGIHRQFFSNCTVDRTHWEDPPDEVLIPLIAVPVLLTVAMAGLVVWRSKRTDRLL

T3: human amylin receptor (calcitonin receptor co-expressed with receptor activity modifying protein, RAMP3) (human, UniProt P30988 25-474; O60896 24-148)
T3 sequence (looked up) 1: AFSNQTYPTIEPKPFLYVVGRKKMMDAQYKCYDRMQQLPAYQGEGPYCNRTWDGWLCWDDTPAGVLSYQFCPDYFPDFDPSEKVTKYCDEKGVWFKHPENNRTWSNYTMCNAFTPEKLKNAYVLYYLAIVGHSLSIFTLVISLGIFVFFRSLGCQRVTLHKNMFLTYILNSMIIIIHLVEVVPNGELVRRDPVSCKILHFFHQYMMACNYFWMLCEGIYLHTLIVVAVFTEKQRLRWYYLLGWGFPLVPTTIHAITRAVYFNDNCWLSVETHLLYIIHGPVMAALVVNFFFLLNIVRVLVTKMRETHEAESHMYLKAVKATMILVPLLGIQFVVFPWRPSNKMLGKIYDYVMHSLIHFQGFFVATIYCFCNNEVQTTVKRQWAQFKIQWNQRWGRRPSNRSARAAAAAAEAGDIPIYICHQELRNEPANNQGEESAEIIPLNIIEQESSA
T3 sequence (looked up) 2: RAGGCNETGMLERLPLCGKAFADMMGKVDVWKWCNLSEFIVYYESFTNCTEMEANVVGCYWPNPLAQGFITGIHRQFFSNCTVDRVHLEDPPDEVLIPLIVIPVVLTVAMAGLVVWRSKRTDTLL

T4: human calcitonin receptor (human, UniProt P30988 25-474)
T4 sequence (looked up): T3 sequence (looked up) 1

B1: Peptide 35 (SEQ ID NO: 35) (peptide)
peptide: K([γGlu-C18 diacid])KCNTATCATQRLANFLVHSS[Aib]NFGPILPPTNVGSNTY-NH2
modifications: disulfide 3-8; N-terminus assumed
SMILES: CC[C@H](C)[C@H](NC(=O)[C@@H]1CCCN1C(=O)CNC(=O)[C@H](Cc1ccccc1)NC(=O)[C@H](CC(N)=O)NC(=O)C(C)(C)NC(=O)[C@H](CO)NC(=O)[C@H](CO)NC(=O)[C@H](Cc1c[nH]cn1)NC(=O)[C@@H](NC(=O)[C@H](CC(C)C)NC(=O)[C@H](Cc1ccccc1)NC(=O)[C@H](CC(N)=O)NC(=O)[C@H](C)NC(=O)[C@H](CC(C)C)NC(=O)[C@H](CCCNC(=N)N)NC(=O)[C@H](CCC(N)=O)NC(=O)[C@@H](NC(=O)[C@H](C)NC(=O)[C@@H]1CSSC[C@H](NC(=O)[C@H](CCCCN)NC(=O)[C@@H](N)CCCCNC(=O)CC[C@H](NC(=O)CCCCCCCCCCCCCCCCC(=O)O)C(=O)O)C(=O)N[C@@H](CC(N)=O)C(=O)N[C@@H]([C@@H](C)O)C(=O)N[C@@H](C)C(=O)N[C@@H]([C@@H](C)O)C(=O)N1)[C@@H](C)O)C(C)C)C(=O)N[C@@H](CC(C)C)C(=O)N1CCC[C@H]1C(=O)N1CCC[C@H]1C(=O)N[C@H](C(=O)N[C@@H](CC(N)=O)C(=O)N[C@H](C(=O)NCC(=O)N[C@@H](CO)C(=O)N[C@@H](CC(N)=O)C(=O)N[C@H](C(=O)N[C@@H](Cc1ccc(O)cc1)C(N)=O)[C@@H](C)O)C(C)C)[C@@H](C)O
B2: Peptide 40 (SEQ ID NO: 40) (peptide)
peptide: K([γGlu-C18 diacid])KCNTATCATQRLANFLVHSS[Aib]NFGPILPPTHVGSNTY-NH2
modifications: disulfide 3-8; N-terminus assumed
SMILES: CC[C@H](C)[C@H](NC(=O)[C@@H]1CCCN1C(=O)CNC(=O)[C@H](Cc1ccccc1)NC(=O)[C@H](CC(N)=O)NC(=O)C(C)(C)NC(=O)[C@H](CO)NC(=O)[C@H](CO)NC(=O)[C@H](Cc1c[nH]cn1)NC(=O)[C@@H](NC(=O)[C@H](CC(C)C)NC(=O)[C@H](Cc1ccccc1)NC(=O)[C@H](CC(N)=O)NC(=O)[C@H](C)NC(=O)[C@H](CC(C)C)NC(=O)[C@H](CCCNC(=N)N)NC(=O)[C@H](CCC(N)=O)NC(=O)[C@@H](NC(=O)[C@H](C)NC(=O)[C@@H]1CSSC[C@H](NC(=O)[C@H](CCCCN)NC(=O)[C@@H](N)CCCCNC(=O)CC[C@H](NC(=O)CCCCCCCCCCCCCCCCC(=O)O)C(=O)O)C(=O)N[C@@H](CC(N)=O)C(=O)N[C@@H]([C@@H](C)O)C(=O)N[C@@H](C)C(=O)N[C@@H]([C@@H](C)O)C(=O)N1)[C@@H](C)O)C(C)C)C(=O)N[C@@H](CC(C)C)C(=O)N1CCC[C@H]1C(=O)N1CCC[C@H]1C(=O)N[C@H](C(=O)N[C@@H](Cc1c[nH]cn1)C(=O)N[C@H](C(=O)NCC(=O)N[C@@H](CO)C(=O)N[C@@H](CC(N)=O)C(=O)N[C@H](C(=O)N[C@@H](Cc1ccc(O)cc1)C(N)=O)[C@@H](C)O)C(C)C)[C@@H](C)O
B3: Peptide 38 (SEQ ID NO: 38) (peptide)
peptide: K([γGlu-C18 diacid])KCNTATCATQRLAEFLVHSS[Aib]NFGPILPPTNVGSNTY-NH2
modifications: disulfide 3-8; N-terminus assumed
SMILES: CC[C@H](C)[C@H](NC(=O)[C@@H]1CCCN1C(=O)CNC(=O)[C@H](Cc1ccccc1)NC(=O)[C@H](CC(N)=O)NC(=O)C(C)(C)NC(=O)[C@H](CO)NC(=O)[C@H](CO)NC(=O)[C@H](Cc1c[nH]cn1)NC(=O)[C@@H](NC(=O)[C@H](CC(C)C)NC(=O)[C@H](Cc1ccccc1)NC(=O)[C@H](CCC(=O)O)NC(=O)[C@H](C)NC(=O)[C@H](CC(C)C)NC(=O)[C@H](CCCNC(=N)N)NC(=O)[C@H](CCC(N)=O)NC(=O)[C@@H](NC(=O)[C@H](C)NC(=O)[C@@H]1CSSC[C@H](NC(=O)[C@H](CCCCN)NC(=O)[C@@H](N)CCCCNC(=O)CC[C@H](NC(=O)CCCCCCCCCCCCCCCCC(=O)O)C(=O)O)C(=O)N[C@@H](CC(N)=O)C(=O)N[C@@H]([C@@H](C)O)C(=O)N[C@@H](C)C(=O)N[C@@H]([C@@H](C)O)C(=O)N1)[C@@H](C)O)C(C)C)C(=O)N[C@@H](CC(C)C)C(=O)N1CCC[C@H]1C(=O)N1CCC[C@H]1C(=O)N[C@H](C(=O)N[C@@H](CC(N)=O)C(=O)N[C@H](C(=O)NCC(=O)N[C@@H](CO)C(=O)N[C@@H](CC(N)=O)C(=O)N[C@H](C(=O)N[C@@H](Cc1ccc(O)cc1)C(N)=O)[C@@H](C)O)C(C)C)[C@@H](C)O
B4: Peptide 43 (SEQ ID NO: 43) (peptide)
peptide: K([γGlu-C18 diacid])KCNTATCATQRLANFLRHSS[Aib]NFGPILPPTEVGSNTY-NH2
modifications: disulfide 3-8; N-terminus assumed
SMILES: CC[C@H](C)[C@H](NC(=O)[C@@H]1CCCN1C(=O)CNC(=O)[C@H](Cc1ccccc1)NC(=O)[C@H](CC(N)=O)NC(=O)C(C)(C)NC(=O)[C@H](CO)NC(=O)[C@H](CO)NC(=O)[C@H](Cc1c[nH]cn1)NC(=O)[C@H](CCCNC(=N)N)NC(=O)[C@H](CC(C)C)NC(=O)[C@H](Cc1ccccc1)NC(=O)[C@H](CC(N)=O)NC(=O)[C@H](C)NC(=O)[C@H](CC(C)C)NC(=O)[C@H](CCCNC(=N)N)NC(=O)[C@H](CCC(N)=O)NC(=O)[C@@H](NC(=O)[C@H](C)NC(=O)[C@@H]1CSSC[C@H](NC(=O)[C@H](CCCCN)NC(=O)[C@@H](N)CCCCNC(=O)CC[C@H](NC(=O)CCCCCCCCCCCCCCCCC(=O)O)C(=O)O)C(=O)N[C@@H](CC(N)=O)C(=O)N[C@@H]([C@@H](C)O)C(=O)N[C@@H](C)C(=O)N[C@@H]([C@@H](C)O)C(=O)N1)[C@@H](C)O)C(=O)N[C@@H](CC(C)C)C(=O)N1CCC[C@H]1C(=O)N1CCC[C@H]1C(=O)N[C@H](C(=O)N[C@@H](CCC(=O)O)C(=O)N[C@H](C(=O)NCC(=O)N[C@@H](CO)C(=O)N[C@@H](CC(N)=O)C(=O)N[C@H](C(=O)N[C@@H](Cc1ccc(O)cc1)C(N)=O)[C@@H](C)O)C(C)C)[C@@H](C)O
B5: Peptide 41 (SEQ ID NO: 41) (peptide)
peptide: K([γGlu-C18 diacid])KCNTATCATQRLANFLVHSS[Aib]NFGPILPPTEVGSNTY-NH2
modifications: disulfide 3-8; N-terminus assumed
SMILES: CC[C@H](C)[C@H](NC(=O)[C@@H]1CCCN1C(=O)CNC(=O)[C@H](Cc1ccccc1)NC(=O)[C@H](CC(N)=O)NC(=O)C(C)(C)NC(=O)[C@H](CO)NC(=O)[C@H](CO)NC(=O)[C@H](Cc1c[nH]cn1)NC(=O)[C@@H](NC(=O)[C@H](CC(C)C)NC(=O)[C@H](Cc1ccccc1)NC(=O)[C@H](CC(N)=O)NC(=O)[C@H](C)NC(=O)[C@H](CC(C)C)NC(=O)[C@H](CCCNC(=N)N)NC(=O)[C@H](CCC(N)=O)NC(=O)[C@@H](NC(=O)[C@H](C)NC(=O)[C@@H]1CSSC[C@H](NC(=O)[C@H](CCCCN)NC(=O)[C@@H](N)CCCCNC(=O)CC[C@H](NC(=O)CCCCCCCCCCCCCCCCC(=O)O)C(=O)O)C(=O)N[C@@H](CC(N)=O)C(=O)N[C@@H]([C@@H](C)O)C(=O)N[C@@H](C)C(=O)N[C@@H]([C@@H](C)O)C(=O)N1)[C@@H](C)O)C(C)C)C(=O)N[C@@H](CC(C)C)C(=O)N1CCC[C@H]1C(=O)N1CCC[C@H]1C(=O)N[C@H](C(=O)N[C@@H](CCC(=O)O)C(=O)N[C@H](C(=O)NCC(=O)N[C@@H](CO)C(=O)N[C@@H](CC(N)=O)C(=O)N[C@H](C(=O)N[C@@H](Cc1ccc(O)cc1)C(N)=O)[C@@H](C)O)C(C)C)[C@@H](C)O

Key:
Assay in all cases: cell-based or functional assay
rat calcitonin receptor = molecular target: T1, rat calcitonin receptor
[1] = molecular target: T2, rat amylin receptor (calcitonin …)
[2] = molecular target: T3, human amylin receptor (calcitonin …)
[3] = molecular target: T4, human calcitonin receptor

Row | Binder | EC50 (cAMP production) (rat calcitonin receptor) [nM] | EC50 (cAMP production) [1] [nM] | EC50 (cAMP production) [2] [nM] | Ratio (EC50 hCTR / EC50 hAMYR3) [2] | EC50 (cAMP production) [3] [nM]
1 | B1 | 0.514 | 0.0059 | 0.259 | 55 | 14.2
2 | B2 | 0.782 | 0.012 | 0.228 | 15 | 3.33
3 | B3 | 0.0203 | 0.0051 | 0.19 | 6 | 1.05
4 | B4 | 3.65 | 0.0145 | 0.647 | 29 | 19
5 | B5 | 0.925 | 0.0082 | 0.178 | 7 | 1.18
